In the supplement of paper PMC7877785:
± gives the uncertainty stated by the source.

Experiment: self-splicing fitness, log relative to wild type (ln ratio); higher = more splicing; Tetrahymena group I intron in knt gene, E. coli kanamycin selection, DiMSum; sequences stand for … in CUCUCU…GGAGGGAAAAGUUAUCAGGCAUGCACCUGGUAGCUAGUCUUUAAACCAAUAGAUUGCAUCGGUUUAAAAGGCAAGACCGUCAAAUUGCGGGAAAGGGGUCAACAGCCGUUCAGUACCAAGUCUCAGGGGAAACUUUGAGAUGGCCUUGCAAAGGGUAUGGUAAUAAGCUGACGGACAUGGUCCUAACCACGCAGCCAAGUCCUAAGUCAACAGAUCUUCUGUUGAUAUGGAUGCAGUUCACAGACUAAAUGUCGGUCGGGGAAGAUGUAUUCUUCUCAUAAGAUAUAGUCGGACCUCUCCUUAAUGGGAGCUAGCGGAUGAAGUGAUGCAACACUGGAGCCGCUGGGAACUAAUUUGUAUGCGAAAGUAUAUUGAUUAGUUUUGGAGUACUCGUGGUCG
Procedure, shortened: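 DiMSum derived fitness as the error-weighted combination of fold changes across replicates, kanamycin versus no kanamycin, normalised to wild type. E. coli BL21(DE3) held the library, which randomised all eight P1ex-region intron nucleotides within the knt kanamycin-resistance gene on pET-22b(+). Six replicate transformations grew overnight at 37°C or 30°C on LB agar with or without 25 μg/mL kanamycin, also containing 100 μg/mL carbenicillin, 50 μM IPTG and 0.2% rhamnose, and pooled colonies were amplicon-sequenced on an Illumina HiSeq 2500.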

| Sequence | self-splicing fitness (ln) (30 °C) | self-splicing fitness (ln) (37 °C) |
| --- | --- | --- |
| CGUGAGCAAUAUUACGAACU | -2.23 ± 0.3 | -0.177 ± 0.29 |
| GGCUAGCAAUAUUACGCAAA | -1.68 ± 0.18 | -0.628 ± 0.16 |
| GUACAGCAAUAUUACGCCUU | -1.23 ± 0.095 | -0.531 ± 0.11 |
| GUGCAGCAAUAUUACGAGUC | -2.57 ± 0.1 | -0.808 ± 0.099 |
| GGCCAGCAAUAUUACGAUUC | -0.666 ± 0.067 | -0.139 ± 0.099 |
| CCAUAGCAAUAUUACGAUAG | -0.989 ± 0.06 | -0.387 ± 0.076 |
| GAGCAGCAAUAUUACGUCCU | -0.165 ± 0.12 | -0.134 ± 0.16 |
| CAUGAGCAAUAUUACGCAAU | -3.1 ± 0.38 |  |
| GCGCAGCAAUAUUACGGGGC | -3.33 ± 0.18 | -2.75 ± 0.38 |
| GGCAAGCAAUAUUACGCAUC | -0.644 ± 0.078 | -0.532 ± 0.1 |
| GUAAAGCAAUAUUACGAUAA | -0.115 ± 0.076 | 0.632 ± 0.11 |
| AGGCAGCAAUAUUACGCCGA | -1.28 ± 0.35 | -1.97 ± 0.22 |
| AGUUAGCAAUAUUACGACGU | 0.261 ± 0.07 | 0.647 ± 0.083 |
| GUGCAGCAAUAUUACGCGAC | -3.59 ± 0.34 | -1.8 ± 0.2 |
| GUGUAGCAAUAUUACGGCUA | -1.84 ± 0.34 | -2.77 ± 0.32 |
| UAGGAGCAAUAUUACGAGAU |  | -1.95 ± 0.36 |
| GUUUAGCAAUAUUACGCCUU | -1.21 ± 0.17 | -0.678 ± 0.21 |
| UCACAGCAAUAUUACGACCG | -0.795 ± 0.11 | 0.149 ± 0.12 |
| UAGCAGCAAUAUUACGUUGA | -2.46 ± 0.13 | -2.07 ± 0.12 |
| AGAUAGCAAUAUUACGGCCC | -0.127 ± 0.19 | -0.606 ± 0.23 |
| AUGGAGCAAUAUUACGUCAC | -3.23 ± 0.37 |  |
| UCGGAGCAAUAUUACGGAGG | -3.68 ± 0.46 | -1.98 ± 0.34 |
| ACUGAGCAAUAUUACGCUCU | -3.59 ± 0.2 | -2.31 ± 0.24 |
| AUCUAGCAAUAUUACGUUGU | -3.68 ± 0.17 | -2.27 ± 0.13 |
| UAGUAGCAAUAUUACGUCUG | 0.113 ± 0.19 | -0.884 ± 0.2 |
| UUUCAGCAAUAUUACGGUUC | -1.67 ± 0.17 | -1.82 ± 0.27 |
| CCCAAGCAAUAUUACGACAC | -2.66 ± 0.2 | -3.25 ± 0.43 |

| Sequence | self-splicing fitness (ln) (30 °C) | self-splicing fitness (ln) (37 °C) |
| --- | --- | --- |
| ACAUAGCAAUAUUACGCUAG | -2 ± 0.11 | -0.855 ± 0.13 |
| AACAAGCAAUAUUACGUCCC | -0.608 ± 0.12 | -0.718 ± 0.17 |
| CUUCAGCAAUAUUACGAAGA | -3.72 ± 0.4 | -2.33 ± 0.21 |
| CAGGAGCAAUAUUACGGGGC | -2.17 ± 0.23 |  |
| UGGGAGCAAUAUUACGCCCA | -1.61 ± 0.4 |  |
| CGCAAGCAAUAUUACGAUGC |  | -2.4 ± 0.32 |
| CCCUAGCAAUAUUACGCAGU | -4.87 ± 0.36 | -2.2 ± 0.22 |
| AAGAAGCAAUAUUACGCGGA | -2.71 ± 0.16 | -0.37 ± 0.12 |
| AAGGAGCAAUAUUACGACUC | -1.25 ± 0.15 | -0.365 ± 0.17 |
| ACGUAGCAAUAUUACGUGCA | -2.38 ± 0.17 | -0.124 ± 0.096 |
| UCUUAGCAAUAUUACGCCUC |  | -2.31 ± 0.45 |
| GCCUAGCAAUAUUACGUCGG | -3.62 ± 0.19 | -2.93 ± 0.21 |
| UAUGAGCAAUAUUACGGAGU | -4.87 ± 0.36 | -3.53 ± 0.37 |
| CCACAGCAAUAUUACGGCCU | -3.94 ± 0.24 | -3.38 ± 0.31 |
| UUUCAGCAAUAUUACGGUCA | 0.101 ± 0.12 | 0.222 ± 0.13 |
| UAUUAGCAAUAUUACGAAAA | -1.68 ± 0.26 | -1.2 ± 0.26 |
| CGGGAGCAAUAUUACGCGAU |  | -1.6 ± 0.41 |
| GAAGAGCAAUAUUACGUCAC |  | -2.13 ± 0.23 |
| GUCGAGCAAUAUUACGCUUA | -1.12 ± 0.13 | -0.065 ± 0.12 |
| UCAUAGCAAUAUUACGGUCA | -1.1 ± 0.16 | -0.484 ± 0.16 |
| UCAGAGCAAUAUUACGAGCC |  | -2.18 ± 0.4 |
| GGACAGCAAUAUUACGCGCU | -1.92 ± 0.22 | -1.36 ± 0.34 |
| AGUCAGCAAUAUUACGAUUU | -0.399 ± 0.064 | -0.286 ± 0.11 |
| CUUGAGCAAUAUUACGCAAU | -3.44 ± 0.32 | -2.77 ± 0.38 |
| AAGAAGCAAUAUUACGCUGU | -2.63 ± 0.13 | -1.28 ± 0.12 |
| AGUGAGCAAUAUUACGUUCU | -1.78 ± 0.15 | -1.57 ± 0.14 |
| GCUGAGCAAUAUUACGUCGU | -2.05 ± 0.097 | -1.52 ± 0.12 |

| Sequence | self-splicing fitness (ln) (30 °C) | self-splicing fitness (ln) (37 °C) |
| --- | --- | --- |
| CGAUAGCAAUAUUACGCAUC | -3.16 ± 0.31 | -1.94 ± 0.38 |
| AGUAAGCAAUAUUACGCGGG | -2.82 ± 0.29 | -2.13 ± 0.29 |
| GAACAGCAAUAUUACGGGCU | -3.02 ± 0.15 | -0.92 ± 0.11 |
| CCGAAGCAAUAUUACGCGGC | -3.55 ± 0.28 | -2.27 ± 0.3 |
| CUAAAGCAAUAUUACGGCUA | -3.85 ± 0.21 | -2.34 ± 0.25 |
| GGCAAGCAAUAUUACGGGAU | -2.31 ± 0.086 | -0.713 ± 0.089 |
| UAUCAGCAAUAUUACGCUUA | -0.532 ± 0.13 | 0.504 ± 0.13 |
| UUCGAGCAAUAUUACGUUCG | -3.75 ± 0.24 | -2.32 ± 0.27 |
| UAGGAGCAAUAUUACGCACG | -2.12 ± 0.32 | -0.819 ± 0.25 |
| CAAUAGCAAUAUUACGAGGA | -2.82 ± 0.26 | -2.07 ± 0.27 |
| CGAAAGCAAUAUUACGCCGA | -1.99 ± 0.24 | -0.323 ± 0.15 |
| CUUUAGCAAUAUUACGCCUU | -2.77 ± 0.31 | -2.94 ± 0.43 |
| UGGAAGCAAUAUUACGCGUA | -1.21 ± 0.11 | -0.131 ± 0.15 |
| AAGCAGCAAUAUUACGAAUC | -2.44 ± 0.16 | -2.12 ± 0.2 |
| AUGGAGCAAUAUUACGCGUC | -4.02 ± 0.18 | -2.79 ± 0.15 |
| CCGAAGCAAUAUUACGGUAG | -2.87 ± 0.11 | -1.3 ± 0.095 |
| ACGCAGCAAUAUUACGCAUG | -3.56 ± 0.14 | -2.57 ± 0.21 |
| CGGAAGCAAUAUUACGACUA | -0.269 ± 0.1 | 0.239 ± 0.1 |
| GCACAGCAAUAUUACGGAAA | -2.39 ± 0.2 | 0.239 ± 0.16 |
| UAAAAGCAAUAUUACGAUCA | -0.503 ± 0.08 | 0.0071 ± 0.11 |
| UCUUAGCAAUAUUACGAAUG | -2.87 ± 0.43 | -2.01 ± 0.38 |
| AGAAAGCAAUAUUACGUUCG | -0.631 ± 0.07 | 0.484 ± 0.092 |
| GCACAGCAAUAUUACGGUGU | -3.58 ± 0.14 | -3.45 ± 0.29 |
| UUAGAGCAAUAUUACGUUCA | -0.27 ± 0.14 | -0.536 ± 0.17 |
| GCACAGCAAUAUUACGACCG | -1.14 ± 0.098 | 0.0916 ± 0.15 |
